{"source": "IntAct's records for PubMed 18769030", "parents": {"B1": {"name": "Solute carrier family 12 member 5 (Rattus norvegicus (Rat)), Q63633 (parent)", "chain": "MSRRFTVTSLPPAASAASADPESRRHSVADPRRLPREDVKGDGNPKESSPFINSTDTEKGREYDGRNMALFEEEMDTSPMVSSLLSGLANYTNLPQGSKEHEEAENNEGGKKKPVQAPRMGTFMGVYLPCLQNIFGVILFLRLTWVVGIAGIMESFCMVFICCSCTMLTAISMSAIATNGVVPAGGSYYMISRSLGPEFGGAVGLCFYLGTTFAGAMYILGTIEILLAYLFPAMAIFKAEDASGEAAAMLNNMRVYGTCVLTCMATVVFVGVKYVNKFALVFLGCVILSILAIYAGVIKSAFDPPNFPICLLGNRTLSRHGFDVCAKLAWEGNETVTTRLWGLFCSSRLLNATCDEYFTRNNVTEIQGIPGAASGLIKENLWSSYLTKGVIVERRGMPSVGLADGTPVDMDHPYVFSDMTSYFTLLVGIYFPSVTGIMAGSNRSGDLRDAQKSIPTGTILAIATTSAVYISSVVLFGACIEGVVLRDKFGEAVNGNLVVGTLAWPSPWVIVIGSFFSTCGAGLQSLTGAPRLLQAISRDGIVPFLQVFGHGKANGEPTWALLLTACICEIGILIASLDEVAPILSMFFLMCYMFVNLACAVQTLLRTPNWRPRFRYYHWTLSFLGMSLCLALMFICSWYYALVAMLIAGLIYKYIEYRGAEKEWGDGIRGLSLSAARYALLRLEEGPPHTKNWRPQLLVLVRVDQDQNVVHPQLLSLTSQLKAGKGLTIVGSVLEGTFLDNHPQAQRAEESIRRLMEAEKVKGFCQVVISSNLRDGVSHLIQSGGLGGLQHNTVLVGWPRNWRQKEDHQTWRNFIELVRETTAGHLALLVTKNVSMFPGNPERFSEGSIDVWWIVHDGGMLMLLPFLLRHHKVWRKCKMRIFTVAQMDDNSIQMKKDLTTFLYHLRITAEVEVVEMHESDISAYTYEKTLVMEQRSQILKQMHLTKNEREREIQSITDESRGSIRRKNPANTRLRLNVPEETACDNEEKPEEEVQLIHDQSAPSCPSSSPSPGEEPEGEGETDPEKVHLTWTKDKSAAQKNKGPSPVSSEGIKDFFSMKPEWENLNQSNVRRMHTAVRLNEVIVNKSRDAKLVLLNMPGPPRNRNGDENYMEFLEVLTEQLDRVMLVRGGGREVITIYS"}}}
{"variants_of": "B1", "conditions": "with mycb2_mouse Mycbp2, Q7TPH6"}
{"variant": "R1104A", "effect of a mutation on the interaction": "disrupting interaction"}
{"variant": "N1105E", "effect of a mutation on the interaction": "disrupting interaction"}
{"variants_of": "B1", "conditions": "with mycb2_mouse Mycbp2, Q7TPH6", "remark": "another data set of the same source"}
{"variant": "R1104A", "effect of a mutation on the interaction": "decreasing interaction"}
